In the FLAb antibody collection (doi:10.7554/elife.23156):

B1: scFv; the commonest letter at each place (parent)
chain 1: EVKLDETGGGLVQPGRPMKLSCVASGFTFSDYWMNWVRQSPEKGLEWVAQIRNKPYNYETYYSDSVKGRFTISRDDSKSSVYLQMNNLRVEDMGIYYCTGSYYGMDYWGQGTSVTVS
chain 2: DVVMTQTPLSLPVSLGDQASISCRSSQSLVHSNGNTYLRWYLQKPGQSPKVLIYKVSNRFSGVPDRFSGSGSGTDFTLKISRVEAEDLGVYFCSQSTHVPWTFGGGTKLEIK

What was measured:
fluorescein = variants of: B1; assay: Kd (Tite-Seq); conditions: with fluorescein; format: scFv 4-4-20, heavy + light
[1] = variants of: B1; assay: yeast surface expression (ratio to wild type); higher = more expressed; conditions: format: scFv 4-4-20, heavy + light

Variant | Kd (fluorescein) | yeast surface expression [1]
chain 1 EVKLDETGGGLVQPGRPMKLSCVASGFTFSDYWMNWVRQSPEKGLEWVAQIRNKPYNYETYYSDSVKGRFTISRDDSKSSVYLQMNNLRVEDMGIYYCTGSYYGVDYWYQGTSVTVS chain 2 DVVMTQTPLSLPVSLGDQASISCRSSQSLVHSNGNTYLRWYLQKPGQSPKVLIYKVSNRFSGVPDRFSGSGSGTDFTLKISRVEAEDLGVYFCSQSTHVPWTFGGGTKLEIK [chain 1 M105V G109Y] | ≥ 10 µM | 0.227
chain 1 EVKLDETGGGLVQPGRPMKLSCVASGFTFSDYWMNWVRQSPEKGLEWVAQIRNKPYNYETYYSDSVKGRFTISRDDSKSSVYLQMNNLRVEDMGIYYCTGSYIMMDYWGQGTSVTVS chain 2 DVVMTQTPLSLPVSLGDQASISCRSSQSLVHSNGNTYLRWYLQKPGQSPKVLIYKVSNRFSGVPDRFSGSGSGTDFTLKISRVEAEDLGVYFCSQSTHVPWTFGGGTKLEIK [chain 1 Y103I G104M] | ≥ 10 µM | 0.368
chain 1 EVKLDETGGGLVQPGRPMKLSCVASGFTFSDYDMGWVRQSPEKGLEWVAQIRNKPYNYETYYSDSVKGRFTISRDDSKSSVYLQMNNLRVEDMGIYYCTGSYYGMDYWGQGTSVTVS chain 2 DVVMTQTPLSLPVSLGDQASISCRSSQSLVHSNGNTYLRWYLQKPGQSPKVLIYKVSNRFSGVPDRFSGSGSGTDFTLKISRVEAEDLGVYFCSQSTHVPWTFGGGTKLEIK [chain 1 W33D N35G] | ≥ 10 µM | 0.941
chain 1 EVKLDETGGGLVQPGRPMKLSCVASGFTFSDYWMNWVRQSPEKGLEWVAQIRNKPYNYETYYSDSVKGRFTISRDDSKSSVYLQMNNLRVEDMGIYYCTGSMYMMDYWGQGTSVTVS chain 2 DVVMTQTPLSLPVSLGDQASISCRSSQSLVHSNGNTYLRWYLQKPGQSPKVLIYKVSNRFSGVPDRFSGSGSGTDFTLKISRVEAEDLGVYFCSQSTHVPWTFGGGTKLEIK [chain 1 Y102M G104M] | ≥ 10 µM | 0.472
chain 1 EVKLDETGGGLVQPGRPMKLSCVASGFTFSDYWMNWVRQSPEKGLEWVAQIRNKPYNYETYYSDSVKGRFTISRDDSKSSVYLQMNNLRVEDMGIYYCTGSYPGMDEWGQGTSVTVS chain 2 DVVMTQTPLSLPVSLGDQASISCRSSQSLVHSNGNTYLRWYLQKPGQSPKVLIYKVSNRFSGVPDRFSGSGSGTDFTLKISRVEAEDLGVYFCSQSTHVPWTFGGGTKLEIK [chain 1 Y103P Y107E] | ≥ 10 µM | 0.763
chain 1 EVKLDETGGGLVQPGRPMKLSCVASGFTFSDYWMNWVRQSPEKGLEWVAQIRNKPYNYETYYSDSVKGRFTISRDDSKSSVYLQMNNLRVEDMGIYYCTISYYGMDYKGQGTSVTVS chain 2 DVVMTQTPLSLPVSLGDQASISCRSSQSLVHSNGNTYLRWYLQKPGQSPKVLIYKVSNRFSGVPDRFSGSGSGTDFTLKISRVEAEDLGVYFCSQSTHVPWTFGGGTKLEIK [chain 1 G100I W108K] | ≥ 10 µM | 0.698
chain 1 EVKLDETGGGLVQPGRPMKLSCVASGFTDSDYLMNWVRQSPEKGLEWVAQIRNKPYNYETYYSDSVKGRFTISRDDSKSSVYLQMNNLRVEDMGIYYCTGSYYGMDYWGQGTSVTVS chain 2 DVVMTQTPLSLPVSLGDQASISCRSSQSLVHSNGNTYLRWYLQKPGQSPKVLIYKVSNRFSGVPDRFSGSGSGTDFTLKISRVEAEDLGVYFCSQSTHVPWTFGGGTKLEIK [chain 1 F29D W33L] | ≥ 10 µM | 0.795
chain 1 EVKLDETGGGLVQPGRPMKLSCVASGFTFSDYWSNKVRQSPEKGLEWVAQIRNKPYNYETYYSDSVKGRFTISRDDSKSSVYLQMNNLRVEDMGIYYCTGSYYGMDYWGQGTSVTVS chain 2 DVVMTQTPLSLPVSLGDQASISCRSSQSLVHSNGNTYLRWYLQKPGQSPKVLIYKVSNRFSGVPDRFSGSGSGTDFTLKISRVEAEDLGVYFCSQSTHVPWTFGGGTKLEIK [chain 1 M34S W36K] | ≥ 10 µM | 0.646

Continued, in another order:

Kd (fluorescein) | Variant | yeast surface expression [1]
≥ 10 µM | chain 1 EVKLDETGGGLVQPGRPMKLSCVASGFTFSDYWMNWVRQSPEKGLEWVAQIRNKPYNYETYYSDSVKGRFTISRDDSKSSVYLQMNNLRVEDMGIYYCTYEYYGMDYWGQGTSVTVS chain 2 DVVMTQTPLSLPVSLGDQASISCRSSQSLVHSNGNTYLRWYLQKPGQSPKVLIYKVSNRFSGVPDRFSGSGSGTDFTLKISRVEAEDLGVYFCSQSTHVPWTFGGGTKLEIK [chain 1 G100Y S101E] | 0.708
0.0221 µM | chain 1 EVKLDETGGGLVQPGRPMKLSCVASGFTPYDYWMNWVRQSPEKGLEWVAQIRNKPYNYETYYSDSVKGRFTISRDDSKSSVYLQMNNLRVEDMGIYYCTGSYYGMDYWGQGTSVTVS chain 2 DVVMTQTPLSLPVSLGDQASISCRSSQSLVHSNGNTYLRWYLQKPGQSPKVLIYKVSNRFSGVPDRFSGSGSGTDFTLKISRVEAEDLGVYFCSQSTHVPWTFGGGTKLEIK [chain 1 F29P S30Y] | 0.751
≥ 10 µM | chain 1 EVKLDETGGGLVQPGRPMKLSCVASGFTISDYWMNWDRQSPEKGLEWVAQIRNKPYNYETYYSDSVKGRFTISRDDSKSSVYLQMNNLRVEDMGIYYCTGSYYGMDYWGQGTSVTVS chain 2 DVVMTQTPLSLPVSLGDQASISCRSSQSLVHSNGNTYLRWYLQKPGQSPKVLIYKVSNRFSGVPDRFSGSGSGTDFTLKISRVEAEDLGVYFCSQSTHVPWTFGGGTKLEIK [chain 1 F29I V37D] | 1.12
0.021 µM | chain 1 EVKLDETGGGLVQPGRPMKLSCVASGFQFSDYWMNWFRQSPEKGLEWVAQIRNKPYNYETYYSDSVKGRFTISRDDSKSSVYLQMNNLRVEDMGIYYCTGSYYGMDYWGQGTSVTVS chain 2 DVVMTQTPLSLPVSLGDQASISCRSSQSLVHSNGNTYLRWYLQKPGQSPKVLIYKVSNRFSGVPDRFSGSGSGTDFTLKISRVEAEDLGVYFCSQSTHVPWTFGGGTKLEIK [chain 1 T28Q V37F] | 1.1
